According to US20160304604A1 (H LUNDBECK A S, published 2016):
Changes are numbered by the printed parent chain.

T1: human PACAP38 (human, not fully specified; C-terminal lysine is amidated)
T1 peptide: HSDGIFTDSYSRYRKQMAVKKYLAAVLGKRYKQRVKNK

T2: human PACAP27 (human, C-terminal leucine is amidated)
T2 peptide: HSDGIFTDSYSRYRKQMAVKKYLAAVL

T3: PAC1-R on PC-12 cells (UniProt P32215 20-523)
T3 construct: whole, on cells; Endogenous receptor of PC-12 cells; also called PAC1 receptor; PAC1-R-expressing PC-12 cells
T3 sequence (looked up): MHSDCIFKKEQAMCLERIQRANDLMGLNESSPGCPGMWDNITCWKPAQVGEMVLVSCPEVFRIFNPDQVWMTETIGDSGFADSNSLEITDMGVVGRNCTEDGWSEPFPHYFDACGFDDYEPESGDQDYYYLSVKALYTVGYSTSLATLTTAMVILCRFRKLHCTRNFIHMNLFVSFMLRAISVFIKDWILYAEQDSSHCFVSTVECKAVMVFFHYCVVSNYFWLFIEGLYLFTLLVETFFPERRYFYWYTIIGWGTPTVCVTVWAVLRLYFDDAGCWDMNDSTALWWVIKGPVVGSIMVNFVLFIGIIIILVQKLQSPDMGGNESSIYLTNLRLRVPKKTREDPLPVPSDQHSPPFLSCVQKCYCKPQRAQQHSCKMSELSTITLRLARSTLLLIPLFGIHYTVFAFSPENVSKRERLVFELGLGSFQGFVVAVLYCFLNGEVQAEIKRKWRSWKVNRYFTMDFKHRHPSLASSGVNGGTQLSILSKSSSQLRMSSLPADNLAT

B1: Ab10 (antibody, human IgG1, kappa, N297A, V domains shown)
VH: QSVEESGGRLVTPGTPLTLTCTVSGIDLNSYYMTWVRQAPGKGLEWIGFIDAGGDAYYASWAKGRFTISKTSTTVDLKITSPTTEDTATYFCARDLDLWGQGTLVTVSS
VL: AAVLTQTPSPVSAAVGGTVTINCQSSESVYGNYLAWFQQKPGQPPKLLIYEASKLESGVPSRFSGSGSGTQFTLTISDLQCDDAATYYCAGGDISEGVAFGGGTEVVVKR
notes: also called anti-PACAP antibody Ab10
B2: Ab21.H (antibody, V domains shown)
VH: EVQLVESGGGLVQPGGSLRLSCAASGIDLSSYYMTWVRQAPGKGLEWIGFIDAGGSAYYATWAKGRFTISRDNSKNTVYLQMNSLRAEDTAVYFCARDLDLWGQGTLVTVSS
VL: DAQLTQSPSTLSASVGDRVTITCKSSESVYGDYLAWFQQKPGKAPKQLIYDASTLASGVPSRFSGSGSGTEFTLTISSLQPDDFATYYCAGGYVSAGVAFGGGTKVEIKR
B3: Ab20 (antibody, human IgG1, kappa, N297A, V domains shown)
VH: B1 VH with N29S, T34S, A52T, G53D, D55S, S60T, Q101P
VL: B1 VL with T20S, N22S, G31S, L47F, E56A, S64K, L79V, A85G, D93Y, I94S
B4: Ab21 (antibody, human IgG1, kappa, N297A, V domains shown)
VH: B1 VH with N29S, I47V, D55S, S60T, T71A, Q101P
VL: AAVLTQTPSPVSAAVGGTVSISCKSSESVYGDYLAWFQQKPGQPPKQLIYDASTLASGVPSRFKGSGSGTQFTLTISGVQCDDAATYYCAGGYVSAGVAFGGGTEVVVKR

Experiments:
human PACAP38 [1] = biological target: T1, human PACAP38; test: cell-based or functional assay
human PACAP27 [2] = biological target: T2, human PACAP27; test: cell-based or functional assay
human PACAP38 [3] = biological target: T1, human PACAP38; test: cell-based or functional assay
human PACAP38 [4] = biological target: T1, human PACAP38; test: cell-based or functional assay
PAC1-R on PC-12 cells = biological target: T3, PAC1-R on PC-12 cells; test: DELFIA TRF cell-surface binding assay: antibody pre-incubated with PACAP38 (200 nM stock mixed 1:1), added to PAC1-R-expressing PC-12 cells, Eu anti-human IgG detection
Procedure: Cells were initially seeded at 1×10⁵ cells/well in a solution of complete RPMI (“cRPMI”: RPMI medium supplemented with 10% sterile heat-inactivated FBS and 1% sterile antibiotic/antimycotic)+10% FBS, and the plates were allowed to incubate overnight at 37° C. On the day of the binding assay, antibodies at an initial concentration of 15 μg/ml were diluted at a 1:3 ratio in DELFIA® binding buffer (50 mM Tris, 150 mM NaCl, 0.1% azide, 2% horse serum) (Perkin-Elmer, Waltham, Mass.) to a total volume of 60 μL in a separate 96 well round bottom plate. PACAP38 was prepared for the binding assay by diluting it in DELFIA® binding buffer to a concentration of 200 nM, and then 60 μl of the diluted PACAP38 was added to each of the antibody-containing wells to form antibody:antigen complexes. Following addition of PACAP38, the antibody:antigen complexes were incubated at room temperature on a shaker for 1 hour. […]
DELFIA® Europium labeled anti-human IgG detection reagent (Cat #1244-330, Perkin-Elmer, Waltham, Mass.) was diluted to a concentration of 300 ng/ml in DELFIA® Binding Buffer. […] The plates were then read (TRF, excitation 330 nm, emission 620 nm) on a SPECTRAMAX® (Molecular Devices, Sunnyvale, Calif.) plate reader.

human PACAP27 [5] = biological target: T2, human PACAP27; test: SPR (ProteOn XPR36), antibody amine-coupled to chip, PACAP27 as analyte 1.23-1000 nM
human PACAP38 [6] = biological target: T1, human PACAP38; test: SPR (ProteOn XPR36), antibody amine-coupled to chip, PACAP38 as analyte 1.23-100 nM, 1:1 Langmuir fit
Procedure: Binding affinities of monoclonal antibodies for human PACAP were estimated using SPR on the PROTEON™ XPR36 (Bio-Rad, Hercules, Calif.). Antibody was immobilized to the surface of general amine coupling (“GLC” or “GLM”) Chips (Bio-Rad, Hercules, Calif.). A dilution series of human PACAP38 (SEQ ID NO: 1241) prepared in 1×PBST Buffer (4.3 mM Na Phosphate, 1.4 mM K Phosphate, 135 mM NaCl, 2.7 mM KCl 0.05% Polysorbate-20) purchased from Teknova (Cat# P1192, Teknova, Hollister, Calif.) and supplemented with 0.25 M arginine (from J. T. BAKER®), 0.2 mg/ml BSA (Jackson Immuno Research Labs, West Grove, Pa.), and 0.005% sodium azide (VWR International, Radnor, Pa.) with the pH adjusted to 7 was used to query the antibodies. Antigen (ranging from 1.23 nM to 100 nM) was typically run sequentially with association times of 2-4 minutes and dissociation times of 3-120 minutes grouped with the PROTEON™ Manager Software (v3.1.0.6 (Bio-Rad, Hercules, Calif.)) and fitted using a 1:1 Langmuir binding model. Surfaces were regenerated between analyte queries using 0.85% Phosphoric Acid.

Binder | Inhibition of 1 nM PACAP38-induced human VPAC2-R mediated cAMP increase IC50 (CHO-K1 cells, HTRF) (human PACAP38 [1]) [nM] | Inhibition of 0.1 nM PACAP27-induced PAC1-R mediated cAMP increase IC50 (PC-12 cells, HTRF) (human PACAP27 [2]) [nM] | Inhibition of 0.1 nM PACAP38-induced PAC1-R mediated cAMP increase IC50 (PC-12 cells, HTRF) (human PACAP38 [3]) [nM] | Inhibition of 5 nM PACAP38-induced human VPAC1-R mediated cAMP increase IC50 (CHO-K1 cells, HTRF) (human PACAP38 [4]) [nM] | binding result (PAC1-R on PC-12 cells) | Kd (human PACAP27 [5]) [nM] | koff (human PACAP27 [5]) [s⁻¹] | Kd (human PACAP38 [6]) [nM] | koff (human PACAP38 [6]) [s⁻¹]
B1 | 0.189 | 0.227 | 0.18 | 0.649 | no binding (tested: about 5000 nM (last point as drawn)) | – | – | – | –
B2 | 1.51 | 0.204 | 0.246 | 2.1 | – | 0.016 | 1e-05 | 0.021 | 1e-05
B3 | 14.6 | 0.188 | 0.368 | 3.89 | – | – | – | – | –
B4 | 5.21 | 0.14 | 0.239 | 2.85 | – | – | – | – | –
